From paper PMC11209382, “Exploring the Potentiality of a Plant Platform for Monoclonal Antibody Production in Veterinary Medicine” (Vaccines, 2024)

Columns and labels:
[1] = target: recombinant canine Interleukin 31 produced in HEK cells (canine); test: dynamic light scattering; hydrodynamic radius of cIL-31 at pH 7.5; monomer to dimer
[2] = target: canine neonatal Fc receptor, C-terminus biotinylated, attached to Streptavidin (cFcRn-SmBiT) (canine); test: other; competition with IgG-LgBiT tracer
[3] = target: recombinant canine Interleukin 31 produced in Nicotiana benthamiana (canine); test: SEC; elution volume on a calibrated Superdex 200 column; monomer to dimer
[4] = target: recombinant canine Interleukin 31 produced in Nicotiana benthamiana (canine); test: dynamic light scattering; hydrodynamic radius of cIL-31 at pH 7.5; monomer to dimer
[5] = target: T1, canine neonatal Fc receptor, C-terminus biotinylated, attached to Streptavidin (cFcRn-SmBiT) (canine, biotin at the C-terminus); test: competition with IgG-LgBiT tracer
T1 chain 1: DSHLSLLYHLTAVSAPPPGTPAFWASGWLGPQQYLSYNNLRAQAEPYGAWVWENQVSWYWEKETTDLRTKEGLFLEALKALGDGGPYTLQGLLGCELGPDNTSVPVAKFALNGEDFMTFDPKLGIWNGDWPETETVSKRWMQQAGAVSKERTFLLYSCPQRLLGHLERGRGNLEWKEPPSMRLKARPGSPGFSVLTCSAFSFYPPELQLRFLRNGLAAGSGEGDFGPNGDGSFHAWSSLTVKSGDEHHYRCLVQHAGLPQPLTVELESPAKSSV
T1 chain 2: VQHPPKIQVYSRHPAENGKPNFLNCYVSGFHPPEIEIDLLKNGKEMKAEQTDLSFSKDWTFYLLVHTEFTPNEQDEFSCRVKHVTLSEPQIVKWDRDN

[6] = target: T2, recombinant canine Interleukin 31 produced in HEK cells (canine); test: BLI
T2 chain: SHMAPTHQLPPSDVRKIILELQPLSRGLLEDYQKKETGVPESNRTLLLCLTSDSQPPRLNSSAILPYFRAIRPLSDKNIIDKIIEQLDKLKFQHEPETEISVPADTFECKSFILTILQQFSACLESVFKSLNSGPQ

[7] = target: T3, recombinant canine Interleukin 31 produced in HEK cells (canine); test: BLI; Lokivetmab or M1 (5 nM) immobilised on ProA biosensors to 1 nm; rcIL-31 (HEK) 300 to 80 nM in solution; 25 °C, PBS pH 7.4, 0.1% BSA, 0.02% Tween; association 360 s, dissociation 600 s; global fit, KD from kd/ka; settings: both partners purified
T3 construct: canine Interleukin 31 (IL-31); also called rcIL-31 (HEK); cIL-31 (HEK); source: produced in HEK cells
T3 chain: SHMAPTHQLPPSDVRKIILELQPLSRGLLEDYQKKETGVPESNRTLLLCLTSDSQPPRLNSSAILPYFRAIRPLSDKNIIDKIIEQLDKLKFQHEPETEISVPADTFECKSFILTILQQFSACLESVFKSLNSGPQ

Molecule | IC50 [5] [µg/mL] | koff [6] [s⁻¹] | Kd [7] [nM] | also measured
recombinant canine Interleukin 31 produced in HEK cells (ligand) | – | – | – | stoichiometry N [1]: 2
Lokivetmab | – | – | – | IC50 [2]: 68.7 µg/mL
recombinant canine Interleukin 31 produced in Nicotiana benthamiana (ligand) | – | – | – | stoichiometry N [3]: 2; stoichiometry N [4]: 2

Second part, led by results:

IC50 [5] [µg/mL] | koff [6] [s⁻¹] | Kd [7] [nM] | Molecule | also measured
17.9 | – | – | plant-made anti-cIL-31 monoclonal antibody M1 produced in wild-type N. benthamiana (antibody) chain 1: EVQLVESGGDLVKPGGSLRLSCVASGFTFSNYGMSWVRQAPGKGLQWVATISYGGSYTYYPDNIKGRFTISRDNAKNTLYLQMNSLRAEDTAMYYCVRGYGYDTMDYWGQGTLVTVSS chain 2: EIVMTQSPASLSLSQEEKVTITCKASQSVSFAGTGLMHWYQQKPGQAPKLLIYRASNLEAGVPSRFSGSGSGTDFSFTISSLEPEDVAVYYCQQSREYPWTFGQGTKLEIK | –
21.6 | 0.00345 | 28.5 | plant-made anti-cIL-31 monoclonal antibody M1 produced in FucT/XylT mutant (ΔXF) N. benthamiana (antibody, V domains shown, CAN-34D03-VH-568-1); CAN 34D03-VL998-1); LC constant domain kappa (XP_035562095.1); Full IgG; N-glycans lack core α(1,3)-fucose and β(1,2)-xylose; also called M1 ΔXF; plant-made Lokivetmab biosimilar; source: ΔXF N. benthamiana, transient expression, purified (Protein A: Hi Screen Fibro PrismA)) VH: EVQLVESGGDLVKPGGSLRLSCVASGFTFSNYGMSWVRQAPGKGLQWVATISYGGSYTYYPDNIKGRFTISRDNAKNTLYLQMNSLRAEDTAMYYCVRGYGYDTMDYWGQGTLVTVSS VL: EIVMTQSPASLSLSQEEKVTITCKASQSVSFAGTGLMHWYQQKPGQAPKLLIYRASNLEAGVPSRFSGSGSGTDFSFTISSLEPEDVAVYYCQQSREYPWTFGQGTKLEIK | –
– | 0.00205 | 27.4 | Lokivetmab (antibody, V domains shown, Caninized IgG; major N-glycoform GnGnF (79%); also called caninized monoclonal antibody targeting IL-31; commercial homolog of M1; source: produced in CHO cells; commercial product) VH: EVQLVESGGDLVKPGGSLRLSCVASGFTFSNYGMSWVRQAPGKGLQWVATISYGGSYTYYPDNIKGRFTISRDNAKNTLYLQMNSLRAEDTAMYYCVRGYGYDTMDYWGQGTLVTVSS VL: EIVMTQSPASLSLSQEEKVTITCKASQSVSFAGTGLMHWYQQKPGQAPKLLIYRASNLEAGVPSRFSGSGSGTDFSFTISSLEPEDVAVYYCQQSREYPWTFGQGTKLEIK | –
